The supplement of paper PMC9233669
This sample holds only a part of the variants without activity.

Legend:
biotinyl-Ile-oxazolone = experiment: self-aminoacylation, catalytic enhancement (BIO) (fold over background); higher = more active; k-Seq, kA / k0A0; sequences stand for … in GGGAAUGGAUCCACAUCUACGAAUUC…UUCACUGCAGACUUGACGAAGCUG
Outline: (§1)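 The uncatalyzed rate is the low-activity peak of a bimodal Gaussian fit, and catalytic enhancement is median kA divided by it. The kA values came from pseudo-first-order fits, with 1000 bootstraps, of per-sequence fraction reacted measured by streptavidin capture, triplicate qPCR and Illumina sequencing. Mutagenized RNA pools with a 21-nt variable region (0.43 μM) were reacted with each biotinyl-aminoacyl-oxazolone at 2–1250 μM in 50 μL HEPES/NaCl/KCl/MgCl2/CaCl2 buffer with 5% acetonitrile, pH 6.9–7.0, for 90 minutes at room temperature.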

biotinyl-Trp-oxazolone = experiment: self-aminoacylation, catalytic enhancement (BWO) (fold over background); higher = more active; k-Seq, kA / k0A0; sequences stand for … in GGGAAUGGAUCCACAUCUACGAAUUC…UUCACUGCAGACUUGACGAAGCUG
Outline: as §1

biotinyl-Phe-oxazolone = experiment: self-aminoacylation, catalytic enhancement (BFO) (fold over background); higher = more active; k-Seq, kA / k0A0; sequences stand for … in GGGAAUGGAUCCACAUCUACGAAUUC…UUCACUGCAGACUUGACGAAGCUG
Outline: as §1

biotinyl-Val-oxazolone = experiment: self-aminoacylation, catalytic enhancement (BVO) (fold over background); higher = more active; k-Seq, kA / k0A0; sequences stand for … in GGGAAUGGAUCCACAUCUACGAAUUC…UUCACUGCAGACUUGACGAAGCUG
Outline: as §1

biotinyl-Leu-oxazolone = experiment: self-aminoacylation, catalytic enhancement (BLO) (fold over background); higher = more active; k-Seq, kA / k0A0; sequences stand for … in GGGAAUGGAUCCACAUCUACGAAUUC…UUCACUGCAGACUUGACGAAGCUG
Outline: as §1

biotinyl-Met-oxazolone = experiment: self-aminoacylation, catalytic enhancement (BMO) (fold over background); higher = more active; k-Seq, kA / k0A0; sequences stand for … in GGGAAUGGAUCCACAUCUACGAAUUC…UUCACUGCAGACUUGACGAAGCUG
Outline: as §1

Sequence	self-aminoacylation (biotinyl-Ile-oxazolone)	self-aminoacylation (biotinyl-Trp-oxazolone)	self-aminoacylation (biotinyl-Phe-oxazolone)	self-aminoacylation (biotinyl-Val-oxazolone)	self-aminoacylation (biotinyl-Leu-oxazolone)	self-aminoacylation (biotinyl-Met-oxazolone)
CCACCCUUAAAGCAAUCGGUC [Fam1B.1 aminoacylation ribozyme variant]	1.23	1.4	1.59	1.18	1.05	0.96
AAGUUCGCUAAAAGUCGCAAG [Fam3.1 aminoacylation ribozyme variant]	2.42	3.39	4.4	1.67	2.68	2.51
CCACGAUUCAAGCAAUCGGUC [Fam1B.1 aminoacylation ribozyme variant]	1.51	1.95	1.89	1.47	1.17	1.78
AUUACCCUGGGCACCGAGUGA [Fam2.1 aminoacylation ribozyme variant]	3.37	5.46	37.9	2.84	6.68	6.11
CCACACUUCAAGCACUGGGUC [Fam1B.1 aminoacylation ribozyme variant]	0.807	1.03	0.974	1.1	0.971	0.66
AUUACACUGGUCAUCGCGUGA [Fam2.1 aminoacylation ribozyme variant]	6.84	14.6	102	7.07	14.4	12.6
AUUCGCCUAGGUCAUCGGGAG [Fam2.2 aminoacylation ribozyme variant]	1.29	0.98	2.55	1.54	1.87	1.51
CUACUUCAAACUAUCGGUCUG [Fam1A.1 aminoacylation ribozyme variant]	0.906	0.905	1.15	0.905	0.779	0.818
CUGCUUCAAACGAUCGGUCUG [Fam1A.1 aminoacylation ribozyme variant]	0.727	3.49	2.63	0.803	1.11	0.991
ACUCACCUAGGUCAUCUGGUG [Fam2.2 aminoacylation ribozyme variant]	1.68	2.35	6.43	1.57	2.03	1.87
AUUCACCUCGGUCAUCGGUUG [Fam2.2 aminoacylation ribozyme variant]	0.923	0.911	5.88	1.07	1.25	1.07
AUUACCCUGGGCAUCCAGUGA [Fam2.1 aminoacylation ribozyme variant]	3.76	7.23	50.6	3.83	8.87	8.06
CCACAUUUCAAGCAAUCGGUG [Fam1B.1 aminoacylation ribozyme variant]	6.23	9.35	59.1	5.89	12.9	8.9
CUACUUCAAACAAUCGGUCAA [Fam1A.1 aminoacylation ribozyme variant]	0.846	2.24	6.72	0.996	0.712	0.695
AUUACCCUGGUCUUCUAGUGA [Fam2.1 aminoacylation ribozyme variant]	2.92	7.45	23.6	3.54	5.65	5.28
CUACUUGAAACAAUCCGUCUG [Fam1A.1 aminoacylation ribozyme variant]	0.813	1.44	0.462	0.836	0.759	1.03
AAGCUUGCUAAUAGUCGGAAG [Fam3.1 aminoacylation ribozyme variant]	1.48	1.65	3.45	1.3	1.21	1.34
AUUCUCCUAGGUCCUCGGGUG [Fam2.2 aminoacylation ribozyme variant]	4.72	7.62	54.1	4.54	10.5	6.44
AUUCACCUAGGUCAGCGCGUG [Fam2.2 aminoacylation ribozyme variant]	6.84	11	71.2	6.75	14.9	10.9
CCACAUUUCAAGCAAUCGUUC [Fam1B.1 aminoacylation ribozyme variant]	0.94	0.727	1.13	1.16	0.798	0.83
AUUACCCUGGCCAUCGAGAGA [Fam2.1 aminoacylation ribozyme variant]	0.69	0.803	0.439	1.01	0.919	1.02
CUACUUCACACAGUCGGUCUG [Fam1A.1 aminoacylation ribozyme variant]	0.65	0.682	0.389	0.731	0.682	0.619
AUUGCCAUGGUCAUCGAGUGA [Fam2.1 aminoacylation ribozyme variant]	4.75	11.6	53.5	4.81	10.1	9.29
AUUCUCCUAGGUCAUCGGAUG [Fam2.2 aminoacylation ribozyme variant]	1.03	0.795	0.611	1.1	0.907	0.975
CCACACGUCAAACAAUCGGUC [Fam1B.1 aminoacylation ribozyme variant]	1.21	1.83	1.2	1.34	1.45	1.2
